Source: patent US20250333441A1, “POLYPEPTIDE INHIBITORS AND USES THEREOF” (Neuracle Science Co., Ltd., priority 2021, published 2025)

B1: LRRC4B (230-713): FLAG-tagged LRRC4B deletion construct, amino acids 230-713 of SEQ ID NO: 2 (SEQ ID NO: 54) (protein)
chain: RLEELELSGNRLDLIRPGSFQGLTSLRKLWLMHAQVATIERNAFDDLKSLEELNLSHNNLMSLPHDLFTPLHRLERVHLNHNPWHCNCDVLWLSWWLKETVPSNTTCCARCHAPAGLKGRYIGELDQSHFTCYAPVIVEPPTDLNVTEGMAAELKCRTGTSMTSVNWLTPNGTLMTHGSYRVRISVLHDGTLNFTNVTVQDTGQYTCMVTNSAGNTTASATLNVSAVDPVAAGGTGSGGGGPGGSGGVGGGSGGYTYFTTVTVETLETQPGEEALQPRGTEKEPPGPTTDGVWGGGRPGDAAGPASSSTTAPAPRSSRPTEKAFTVPITDVTENALKDLDDVMKTTKIIIGCFVAITFMAAVMLVAFYKLRKQHQLHKHHGPTRTVEIINVEDELPAASAVSVAAAAAVASGGGVGGDSHLALPALERDHLNHHHYVAAAFKAHYSSNPSGGGCGGKGPPGLNSIHEPLLFKSGSKENVQETQI
modifications: FLAG tag
B2: LRRC4B (36-576): full-length ectodomain of LRRC4B protein, amino acids 36-576 of SEQ ID NO: 2 (SEQ ID NO: 5) (protein)
chain: AGGGGVAVTSAAGGGSPPATSCPVACSCSNQASRVICTRRDLAEVPASIPVNTRYLNLQENGIQVIRTDTFKHLRHLEILQLSKNLVRKIEVGAFNGLPSLNTLELFDNRLTTVPTQAFEYLSKLRELWLRNNPIESIPSYAFNRVPSLRRLDLGELKRLEYISEAAFEGLVNLRYLNLGMCNLKDIPNLTALVRLEELELSGNRLDLIRPGSFQGLTSLRKLWLMHAQVATIERNAFDDLKSLEELNLSHNNLMSLPHDLFTPLHRLERVHLNHNPWHCNCDVLWLSWWLKETVPSNTTCCARCHAPAGLKGRYIGELDQSHFTCYAPVIVEPPTDLNVTEGMAAELKCRTGTSMTSVNWLTPNGTLMTHGSYRVRISVLHDGTLNFTNVTVQDTGQYTCMVTNSAGNTTASATLNVSAVDPVAAGGTGSGGGGPGGSGGVGGGSGGYTYFTTVTVETLETQPGEEALQPRGTEKEPPGPTTDGVWGGGRPGDAAGPASSSTTAPAPRSSRPTEKAFTVPITDVTENALKDLDDVMKTTK
B3: LRRC4B (36-713): FLAG-tagged LRRC4B deletion construct, amino acids 36-713 of SEQ ID NO: 2 (SEQ ID NO: 52) (protein)
chain: AGGGGVAVTSAAGGGSPPATSCPVACSCSNQASRVICTRRDLAEVPASIPVNTRYLNLQENGIQVIRTDTFKHLRHLEILQLSKNLVRKIEVGAFNGLPSLNTLELFDNRLTTVPTQAFEYLSKLRELWLRNNPIESIPSYAFNRVPSLRRLDLGELKRLEYISEAAFEGLVNLRYLNLGMCNLKDIPNLTALVRLEELELSGNRLDLIRPGSFQGLTSLRKLWLMHAQVATIERNAFDDLKSLEELNLSHNNLMSLPHDLFTPLHRLERVHLNHNPWHCNCDVLWLSWWLKETVPSNTTCCARCHAPAGLKGRYIGELDQSHFTCYAPVIVEPPTDLNVTEGMAAELKCRTGTSMTSVNWLTPNGTLMTHGSYRVRISVLHDGTLNFTNVTVQDTGQYTCMVTNSAGNTTASATLNVSAVDPVAAGGTGSGGGGPGGSGGVGGGSGGYTYFTTVTVETLETQPGEEALQPRGTEKEPPGPTTDGVWGGGRPGDAAGPASSSTTAPAPRSSRPTEKAFTVPITDVTENALKDLDDVMKTTKIIIGCFVAITFMAAVMLVAFYKLRKQHQLHKHHGPTRTVEIINVEDELPAASAVSVAAAAAVASGGGVGGDSHLALPALERDHLNHHHYVAAAFKAHYSSNPSGGGCGGKGPPGLNSIHEPLLFKSGSKENVQETQI
modifications: FLAG tag
B4: LRRC4B (364-576): LRRC4B deletion construct, amino acids 364-576 of SEQ ID NO: 2 (SEQ ID NO: 61) (protein)
chain: PVIVEPPTDLNVTEGMAAELKCRTGTSMTSVNWLTPNGTLMTHGSYRVRISVLHDGTLNFTNVTVQDTGQYTCMVTNSAGNTTASATLNVSAVDPVAAGGTGSGGGGPGGSGGVGGGSGGYTYFTTVTVETLETQPGEEALQPRGTEKEPPGPTTDGVWGGGRPGDAAGPASSSTTAPAPRSSRPTEKAFTVPITDVTENALKDLDDVMKTTK
B5: LRRC4B (157-713): FLAG-tagged LRRC4B deletion construct, amino acids 157-713 of SEQ ID NO: 2 (SEQ ID NO: 53) (protein)
chain: LSKLRELWLRNNPIESIPSYAFNRVPSLRRLDLGELKRLEYISEAAFEGLVNLRYLNLGMCNLKDIPNLTALVRLEELELSGNRLDLIRPGSFQGLTSLRKLWLMHAQVATIERNAFDDLKSLEELNLSHNNLMSLPHDLFTPLHRLERVHLNHNPWHCNCDVLWLSWWLKETVPSNTTCCARCHAPAGLKGRYIGELDQSHFTCYAPVIVEPPTDLNVTEGMAAELKCRTGTSMTSVNWLTPNGTLMTHGSYRVRISVLHDGTLNFTNVTVQDTGQYTCMVTNSAGNTTASATLNVSAVDPVAAGGTGSGGGGPGGSGGVGGGSGGYTYFTTVTVETLETQPGEEALQPRGTEKEPPGPTTDGVWGGGRPGDAAGPASSSTTAPAPRSSRPTEKAFTVPITDVTENALKDLDDVMKTTKIIIGCFVAITFMAAVMLVAFYKLRKQHQLHKHHGPTRTVEIINVEDELPAASAVSVAAAAAVASGGGVGGDSHLALPALERDHLNHHHYVAAAFKAHYSSNPSGGGCGGKGPPGLNSIHEPLLFKSGSKENVQETQI
modifications: FLAG tag
B6: LRRC4B (364-713): FLAG-tagged LRRC4B deletion construct, amino acids 364-713 of SEQ ID NO: 2 (SEQ ID NO: 55) (protein)
chain: PVIVEPPTDLNVTEGMAAELKCRTGTSMTSVNWLTPNGTLMTHGSYRVRISVLHDGTLNFTNVTVQDTGQYTCMVTNSAGNTTASATLNVSAVDPVAAGGTGSGGGGPGGSGGVGGGSGGYTYFTTVTVETLETQPGEEALQPRGTEKEPPGPTTDGVWGGGRPGDAAGPASSSTTAPAPRSSRPTEKAFTVPITDVTENALKDLDDVMKTTKIIIGCFVAITFMAAVMLVAFYKLRKQHQLHKHHGPTRTVEIINVEDELPAASAVSVAAAAAVASGGGVGGDSHLALPALERDHLNHHHYVAAAFKAHYSSNPSGGGCGGKGPPGLNSIHEPLLFKSGSKENVQETQI
modifications: FLAG tag
B7: LRRC4B (453-713): FLAG-tagged LRRC4B deletion construct, amino acids 453-713 of SEQ ID NO: 2 (SEQ ID NO: 56) (protein)
chain: VSAVDPVAAGGTGSGGGGPGGSGGVGGGSGGYTYFTTVTVETLETQPGEEALQPRGTEKEPPGPTTDGVWGGGRPGDAAGPASSSTTAPAPRSSRPTEKAFTVPITDVTENALKDLDDVMKTTKIIIGCFVAITFMAAVMLVAFYKLRKQHQLHKHHGPTRTVEIINVEDELPAASAVSVAAAAAVASGGGVGGDSHLALPALERDHLNHHHYVAAAFKAHYSSNPSGGGCGGKGPPGLNSIHEPLLFKSGSKENVQETQI
modifications: FLAG tag

Molecular target: FAM19A5 protein (Homo sapiens, UniProt Q7Z5A7)
Sequence (Q7Z5A7 44-132): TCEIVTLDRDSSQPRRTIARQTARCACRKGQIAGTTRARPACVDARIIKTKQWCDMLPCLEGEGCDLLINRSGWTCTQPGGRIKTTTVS
Experiment: Co-immunoprecipitation of FLAG-tagged LRRC4 family constructs with recombinant FAM19A5 in HEK293 cells
Format: binding
Settings: HEK293 cells expressing FLAG-tagged construct, recombinant FAM19A5 protein (1 μM) 30 minutes; anti-FLAG immunoprecipitation
Protocol: To better understand the interaction between FAM19A5 and members of the LRRC4 protein family, HEK293 cells were modified to express a FLAG-tagged member of the LRRC4 protein family, i.e., LRRC4C protein, LRRC4 protein, or LRRC4B protein. Then, the HEK293 cells or primary cortical neurons were treated with recombinant FAM19A5 protein (1 μM) for 30 minutes, and the binding between FAM19A5 protein and the different members of the LRRC4 protein family was assessed using both co-immunoprecipitation and immunofluorescence assays.
For the co-immunoprecipitation assay, cell lysates from the different FAM19A5-treated HEK293 cells were collected and immunoprecipitated with an anti-FLAG antibody, anti-FAM19A5 (1-65) antibody, or a human IgG antibody (control). Immunoprecipitated proteins were immunoblotted with anti-FLAG and anti-FAM19A5 (3-2) antibodies. For the immunofluorescence assay, the HEK293 cells treated with the recombinant FAM19A5 protein were immunostained with anti-FAM19A5 (3-2) (to detect FAM19A5 protein expression) and anti-FLAG antibodies (to detect member of the LRRC4 protein family). The primary cortical neurons treated with the recombinant FAM19A5 protein were immunostained with anti-FAM19A5 (3-2) and anti-LRRC4B antibodies. The nuclei were stained with Hoechst33342 (blue).
To determine the specific motif or domain of the LRRC4B protein that is responsible for the binding to a FAM19A5 protein, various FLAG-tagged LRRC4B deletion constructs were generated (see Table 6 below). HEK293 cells were transfected with the different deletion constructs and then treated with recombinant FAM19A5 protein as described in Example 1. Then, the cell lysates from the different HEK293 cells were immunoprecipitated with the anti-FLAG antibody. The immunoprecipitated proteins were immunoblotted with anti-FLAG and anti-FAM19A5 (3-2) antibodies.
As described in Example 2, all members of the LRRC4 protein family were capable of binding to FAM19A5 protein to varying degrees. Therefore, to compare the bindings domains, the amino acid sequences of the LRRC4B, LRRC4, and LRRC4C proteins were aligned. […] Therefore, to assess whether the corresponding positions of LRRC4 and LRRC4C were important in the binding of these proteins to FAM19A5 protein, cDNAs encoding either (i) LRRC4C protein fragment (amino acids 354-527 of SEQ ID NO: 3; SEQ ID NO: 66) or (ii) LRRC4 protein fragment (amino acids 353-527 of SEQ ID NO: 1; SEQ ID NO: 67) were constructed (see Table 7). HEK293 cells were transfected to express either of the protein fragments and then treated with recombinant FAM19A5 protein as described in Example 1. Then, the cell lysates from the different HEK293 cells were immunoprecipitated with the anti-FLAG antibody. The immunoprecipitated proteins were immunoblotted with anti-FLAG and anti-FAM19A5 (3-2) antibodies.

Row | Molecule | binding to FAM19A5 protein (co-immunoprecipitation)
1 | B1 | able to bind to the FAM19A5 protein
2 | B2 | able to bind to the FAM19A5 protein
3 | B3 | able to bind to the FAM19A5 protein
4 | B4 | able to bind to the FAM19A5 protein
5 | B5 | able to bind to the FAM19A5 protein
6 | B6 | able to bind to the FAM19A5 protein
7 | B7 | able to bind to the FAM19A5 protein
